Molecular target: KLH (Keyhole Limpet Hemocyanin) (keyhole limpet)
Assay: ELISA on KLH

B1: NGS602-OLIGO_169 (VHH)
VHH: RVQLVESGGGLVQAGGALRLSCVGSGFTFRDTAMAWFRQSPGKEREFVAGFSILSRYADSVKGRFTISRDNDKNTVYLQMNSLKPEDTAVYYCAAGDGTIASVLTTSGVNFWGQGTQVTVSS
Binder B1 has an EC50 of 0.213 nM.

B2: NGS602-OLIGO_186 (VHH)
VHH: QVQLAESGGGLVQAGDSLRLSCAASGRSVSSYAMGWFRQAPGKEREFVAAISWSGESTHYADSVKGRFTISRDNAENTVYLQMNSLKPEDTAVYYCASYLSGHYYFGIGRDPPFGSWGQGTQVTVSS
Binder B2 has an EC50 of 0.28 nM.

B3: NGS602-OLIGO_359 (VHH)
VHH: QVQLVESGGGLVQPGGSLRLSCAASGYSLSFYAMGWYRQSPGKQREVVARIAGPGVTNYADSVMGRFTISRDNAKNMVYLQMNSLEPEDTAVYYCNAGGTRWSVGDYWGKGTLVTVSS
B3 was tested, and the EC50 was 0.61 nM.

B4: NGS602-OLIGO_28 (VHH)
VHH: QVQLVESGGGLVRAGGSLRLSCAASGRAFSSYPMGWFRRAPGKEREFVAAISLSGSKQYYVDSVKGRFTISRDNAKNTVSLQMNSLKPEDTAVYYCAALKDGEPPAVDYWGQGTQVTVSS
In the case of B4, the EC50 is reported as 0.707 nM.

B5: NGS602-OLIGO_149 (VHH)
VHH: QVQLVESGGGLVQAGDSLRLSCAASGRTFSSYAMAWFRRPPGKAREFVALIRWSNGRTAVVDSVKGRFTASRDNAKNTGYLQMDSLKSEDTAVYYCAACDQALDPPRCNDWGQGTQVTVSS
B5 was tested, and the EC50 was 0.147 nM.

B6: NGS602-OLIGO_42 (VHH)
VHH: QVQLVESGGGLVQAGGSLRLSCLFSGTFGIYGMGWFRQAPGKAREFVAGVSRHGLTTQYADSVKGRFTISRDNAKNTMYLQMNSLKPEDTADYYCARSRLSASLLVTASDYDYWGQGTQVTVSS
B6 gave an EC50 of 0.342 nM.

B7: NGS602-OLIGO_221 (VHH)
VHH: QVQLVESGGGLVQAGESLRLSCVASGRTFSSYAMGWFRQAPGQEREFVARISRRGTNTYYADSVRGRFTISRDNAKNTVYLQMNSLKPEDTAVYYCAADRSDVFEKDPGYYDYWGQGAQVTVSS
In the case of B7, the EC50 is reported as 220 nM.

B8: NGS602-OLIGO_31 (VHH)
VHH: QVQLVESGGGLVQAGDSLRLSCTASGTTFDRYHMGWFRQAPGMERHVVAHISWSGANTYVADSMKGRFTISRDNAKNTAYLQINNLKFEDTALYYCAAGSYLAVPGSRWDYWGQGTQVTVSS
B8 gave an EC50 of 1.01 nM.

B9: NGS602-OLIGO_205 (VHH)
VHH: RVQLVESGGGLVQPGGSLRLSCTASGLPLNTAAMSWYRQTPGKERELVASISITGDSTTYADSVKGRFTISRDNVKNIVYLQMDILKPEDTAVYYCTRAPWDYKYWGQGTQVTVSS
With B9 the EC50 was 1.16 nM.

B10: NGS602-OLIGO_2 (VHH)
VHH: QVQLVESGGGLVQPGGSLRLSCAASESIRSIYAMGWYRQAPGKQRELVALVTDDGSTDYVDSVKGRFTVSRDSAKNTVYLQMNSLKPEDTAVYHCYVEGSTHYDPVREYWGKGTLVTVSS
B10 was tested, and the EC50 was 1.74 nM.

B11: NGS602-OLIGO_12 (VHH)
VHH: QVQLVESGGGSVQAGGSLRLSCAASGRTFGRHVMAWFRQAPGREREFVAAISGNGRVTNYALSMKGRFTISRDNANDMVYLQMDGLKPEDTAVYSCATRMAFDSDSNFPATYDVWGQGTQVTVSS
For B11, the EC50 was 0.181 nM.

B12: NGS602-OLIGO_30 (VHH)
VHH: QVQLVESGGGTVQAGGSLRLSCAASGLTFGSYAMEWYRQAPGKERELVATISSGGNTHYLASVKGRFTISRDNDKNTLYLQMNSLKPEDTAVYYCAAKYGWTGIWYAPSDYVHLGPGTQVTVSS
In the case of B12, the EC50 is reported as 0.067 nM.

B13: NGS602-OLIGO_152 (VHH)
VHH: QVQLVESGGGLVQAGDSLRLSCAASGDNFSRYTFGWFRQAPGKEREFVAVINWSGSYTYVADSVAGRFTMSRDNAKHLVYLQMDSLNTGDTAVYYCAAHWDYGSSSRRQREYDYWGQGTQVIVSS
Binder B13 has an EC50 of 0.638 nM.

B14: NGS602-OLIGO_185 (VHH)
VHH: QVQLVESGGGLVQAGGSLRLSCAASGRTSSRYVMGWFRQSPGKEREFVAAISANGRSTNYAGSVNGRFKISRDGAKDKVDLQMNSLKPEDTAVYFCATNMAFSSSSNFPANYDVWGQGTQVTVSS
B14 was tested, and the EC50 was 0.077 nM.

B15: NGS602-OLIGO_151 (VHH)
VHH: EVQLVESGGGLVQPGGSLRLSCTASGFTLSTSPVSWARQAPGKGPEWLAGIYSDGRTSNLVSLRGRFTISRDNAKNTVYLQMNSLLPEDTALYYCAIGAAAVGGLRGQGTQVTVSS
Binder B15 has an EC50 of 0.409 nM.

B16: NGS602-OLIGO_35 (VHH)
VHH: QVSLVESGGGLVQAGGSLRLSCAASGRTFRRSAMGWFRRPPGKEREFVAAITSSGGSIYDPDIAKDRFTISRDNSKTSVYLQMNNLKPEDTAVYYCSLKTTYSGGPYDYTKGPEYDYWGQGTQVTVSS
B16 was tested, and the EC50 was 0.291 nM.

B17: NGS602-OLIGO_55 (VHH)
VHH: QVQLTESGGGLVQAGASLRLSCVASPDTPSTYTIAWFRRAPGKERDFVANIARAGTTITYADSVKGRFTISKDNARNTVYLQMNNLTPADTAIYYCAAYSPGSIIARDSTQYRYWGQGTRVTVSE
B17 gave an EC50 of 0.241 nM.

B18: NGS602-OLIGO_266 (VHH)
VHH: QVQLVESGGGLVQAGGSLRLSCAASGRTFFTYPMGWFRQAPGKERQFVAAISGNGDSIDYADSVKGRFTISRDNAKNTLYLQMNSLKPEDAALYYCNAVITHDYTRPLFASWGQGTQVTVSS
With B18 the EC50 was 0.195 nM.

B19: NGS602-OLIGO_72 (VHH)
VHH: QVELVESGGALVQAGGSLKLSCVDSGRSFSSYVVAWFRQAPGKEREFVARVSASGAIRTYADSVRGRFTISRDNTKATVYLQMNSLKSEDTAVFFCAAGGVSTAVHPFKPTSYDFWGQGTQVTVSV
With B19 the EC50 was 0.072 nM.

— patent US20230002757A1
